Test [1] concerns T1 Arabidopsis. Put plainly: T1 Arabidopsis response to glyphosate applied postemergence (Tables 5-7). In kind it is in vivo, Arabidopsis thaliana. An excerpt: Transgenic T1 Arabidopsis plants containing the dgt-28 transgene were sprayed with differing rates of glyphosate. Elevated rates were applied in this study to determine the relative levels of resistance (105, 420, 1,680 or 3,360 g ae/ha). A typical 1× usage rate of glyphosate that will control non-transformed Arabidopsis is 420 g ae/ha. […] The T1 Arabidopsis plants that were used in this study were variable copy number for the dgt-28 transgene. The low copy dgt-28 T1 Arabidopsis plants were self-pollinated and used to produce T2 plants.
The Arabidopsis T1 transformants were first selected from the background of untransformed seed using a glufosinate selection scheme. Three flats or 30,000 seed were analyzed for each T1 construct. The T1 plants selected above were molecularly characterized and representative plants with variable copy number were subsequently transplanted to individual pots and sprayed with various rates of commercial glyphosate as previously described. The response of these plants is presented in terms of % visual injury 2 weeks after treatment (WAT). […] An arithmetic mean and standard deviation is presented for each construct used for Arabidopsis transformation. The range in individual response is also indicated in the last column for each rate and transformation. Wild-type, non-transformed Arabidopsis (c.v. Columbia) served as a glyphosate sensitive control.

For test [2], the system named is T1 tobacco. In words: Postemergence glyphosate tolerance of dgt-28 T1 tobacco (Table 25). The class given is in vivo, Tobacco (cv. Petit Havana). Conditions: 2240 g ae/ha glyphosate, 14 DAT. An excerpt: T1 resistant plants from each event used in the progeny testing were given unique identifiers and sampled for zygosity analyses of the dgt-28 gene. Zygosity data were used to assign 2 hemizygous and 2 homozygous replicates to each rate of glyphosate applied allowing for a total of 4 replicates per treatment. These plants were compared against wildtype Petite havana tobacco. All plants were sprayed with a track sprayer set at 187 L/ha. The plants were sprayed from a range of 560-4480 g ae/ha DURANGO DMA™. All applications were formulated in water with the addition of 2% w/v ammonium sulfate (AMS). Plants were evaluated at 7 and 14 days after treatment. Plants were assigned an injury rating with respect to overall visual stunting, chlorosis, and necrosis. The T1 generation is segregating, so some variable response is expected due to difference in zygosity.

Test [3] deals with chloroplasts of the tobacco cells. Put plainly: Tobacco transient assay, confocal microscopy of TraP-GFP. The class given is cell-based, Nicotiana benthamiana. Conditions: TraP23-GFP, infiltrated tobacco leaf. An excerpt: The Trap23 synthetic chloroplast transit peptide sequence were initially tested via a transient in planta assay. A polynucleotide sequence which encodes the Trap23v2 (SEQ ID NO:12) synthetic chloroplast transit peptide sequences was synthesized. The resulting construct contained two plant transcription units (PTU). The first PTU was comprised of the Arabidopsis thaliana Ubiquitin 10 promoter (AtUbi10 promoter; Callis, et al., (1990) J. Biol. Chem., 265: 12486-12493), TraP-green fluorescent protein fusion gene (TraP-GFP; U.S. Pat. No. 7,678,893), and Agrobacterium tumefaciens ORF 23 3′ untranslated region (AtuORF23 3′UTR; U.S. Pat. No. 5,428,147). […]
Agrobacterium-infiltrated tobacco leaves were severed from the plant, and placed into a petri-dish with water to prevent dehydration. The infiltrated tobacco leaves were observed under blue light excitation with long-pass filter glasses held in place using a Dark Reader Hand Lamp™ (Clare Chemical Research Co.; Dolores, Colo.) to identify undamaged areas of the leaf that were successfully expressing the GFP reporter proteins. […]

In test [4] the test system is infiltrated tobacco cells. In words: Tobacco transient assay, anti-GFP Western blot. In kind it is cell-based, Nicotiana benthamiana. Conditions: infiltrated tobacco leaf; band size vs GFP control. The method, then:
Samples of the infiltrated tobacco plants were assayed via Western blotting. Leaf punches were collected and subjected to bead-milling. About 100-200 mg of leaf material was mixed with 2 BBs (steel balls; Daisy; Rogers, Ark.) and […] of PBST for 3 minutes in a Kleco™ bead mill. The samples were then spun down in a centrifuge at 14,000×g at 4° C. The supernatant was removed and either analyzed directly via Western blot or immunoprecipitated. The immunoprecipitations were performed using the Pierce Direct IP Kit™ (Thermo Scientific; Rockford, Ill.) following the manufacturer's protocol. Approximately, 50 μg of anti-GFP was bound to the resin. The samples were incubated with the resin overnight at 4° C. Next, the samples were washed and eluted the following morning and prepped for analysis by combining equal volumes of 2×8M Urea sample buffer and then boiling the samples for 5 minutes. The boiled samples were run on a 4-12% SDS-Bis Tris gel in MOPS buffer for 40 minutes. The gel was then blotted using the Invitrogen iBlot™ (Life Technologies; Carlsbad, Calif.) following the manufacturer's protocol. The blotted membrane was blocked for 10 minutes using 5% non-fat dry milk in PBS-Tween solution. The membrane was probed with the primary antibody (monoclonal anti-GFP in rabbit) used at a 1:1000 dilution in the 5% non-fat dry milk in PBS-Tween solution for 1 hour. […]
A general note: A western blot detects proteins with antibodies after separation by electrophoresis.

The test system of test [5] is chloroplasts of the maize protoplast. Put plainly: Maize protoplast transient assay, GFP microscopy. In kind it is cell-based, Zea mays var. B104. Conditions: TraP23-GFP, maize protoplasts, 12 hours incubation. An excerpt: The Trap23 v2 synthetic chloroplast transit peptide-encoding polynucleotide sequence (SEQ ID NO:12) was cloned upstream of the green fluorescent protein gene and incorporated into the pDAB106598 construct (FIG. 5) for testing via the maize protoplast transient in planta assay. The resulting construct contained the following plant transcription unit (PTU). The first PTU was comprised of the Zea mays Ubiquitin 1 promoter (ZmUbi1 promoter; Christensen, A., Sharrock R., and Quail P., (1992) Maize polyubiquitin genes: structure, thermal perturbation of expression and transcript splicing, and promoter activity following transfer to protoplasts by electroporation, Plant Molecular Biology, 18:675-689), TraP-green fluorescent protein fusion gene (TraP23-GFP; U.S. Pat. No. 7,678,893), and Zea mays Peroxidase 5 3′ untranslated region (ZmPer5 3′UTR; U.S. Pat. No. 6,384,207). The construct was confirmed via restriction enzyme digestion and sequencing.
Seed of Zea mays var. B104 were surface sterilized by shaking vigorously in 50% Clorox (3% sodium hypochlorite), containing 2-3 drops of Tween 20, for about 20 minutes. […]
Transfection of 100 to 500 μl of protoplasts (1-5×10^5) was completed by adding the protoplasts to a 2 ml microfuge tube containing about 40 μg of plasmid DNA (pDAB106598), at room temperature. […] Fluorescence of GFP was viewed by microscopy after 12 hours of incubation. […]

Turning to `O=C(O)CNCP(=O)(O)O` [glyphosate], the “typical 1x usage rate of glyphosate that will control non-transformed Arabidopsis” value in test [1] stood at 420 g ae/ha.

B1: TraP8: chloroplast transit peptide, encoding sequence SEQ ID NO:26, fused to dgt-28 (protein)
chain: MAQSSRICHGVQNPCVIISNLSKSNQNKSPFSVSLKTHQQQRRAYQISSWGLKKSNNGSVIRPVKA
modifications: Chloroplast Transit Peptide
Take B1: in test [2], the “% Injury Ave” value came out at 9.3%.

B2: TraP23: synthetic chloroplast transit peptide, SEQ ID NO:11; encoded by SEQ ID NO:12; tested fused to GFP, dgt-28, dgt-31, cry2Aa (protein)
chain: MAQINKSANGVRNASLISNFSNTRQAKSPFSLSCGTRLKNSSRGLKKVAVRLIGSRVKVSAS
modifications: TraP23 synthetic chloroplast transit peptide
notes: tested fused to GFP, dgt-28, dgt-31, cry2Aa
Take B2: the “accumulation of GFP protein within the chloroplasts (microscopy imaging)” value in test [3] is reported as “did not accumulate detectable amounts of GFP protein within the chloroplasts”. Further, the “processing and cleavage of transit peptide from GFP (Western blot)” value in test [4] was “processed”. The “accumulation of GFP within the chloroplasts (microscopy imaging)” value in test [5] is given as “accumulated within the chloroplasts”. Further, the “% Injury Ave” value in test [2] was 9.5%.

B3: TraP4: chloroplast transit peptide, encoding sequence SEQ ID NO:24, fused to dgt-28 (protein)
chain: MLARQGGSLRASQCNAGLARRVEVGALVVPRPISVNDVVPHVYSAPLSVARRSCSKSSIRSTRRLQTTVCS
modifications: Chloroplast Transit Peptide
Take B3: in test [2], the “% Injury Ave” value was “of 37.5% was demonstrated with the event containing TraP4,”.

Source of the values: patent US9506077B2, “Synthetic chloroplast transit peptides” (DOW AGROSCIENCES LLC, priority 2012, dated 2016).
